In PMC9935906, “Network of hotspot interactions cluster tau amyloid folds” (Nature Communications, 2023):

B1: 275VQIINK280 peptide (peptide)
peptide: Ac-VQIINK-NH2
notes: source: synthetic peptide, bought: GenScript (≥95% purity)
B2: 306VQIVYK311 peptide (peptide)
peptide: Ac-VQIVYK-NH2
notes: also called WT; source: synthetic peptide, bought: GenScript (≥95% purity)
B3: VAIVYK peptide (peptide)
peptide: VAIVYK
notes: Acetyl and amide caps and the supplier (GenScript) are stated only for the ZipperDB-predicted hexapeptides; likely the same here; also called VQIVYK alanine mutant at position two; source: peptide
B4: AQIVYK peptide (peptide)
peptide: AQIVYK
notes: Acetyl and amide caps and the supplier (GenScript) are stated only for the ZipperDB-predicted hexapeptides; likely the same here; also called VQIVYK alanine mutant at position one; source: peptide
B5: VQIVAK peptide (peptide)
peptide: VQIVAK
notes: Acetyl and amide caps and the supplier (GenScript) are stated only for the ZipperDB-predicted hexapeptides; likely the same here; also called VQIVYK alanine mutant at position five; source: peptide
B6: VQIVYA peptide (peptide)
peptide: VQIVYA
notes: Acetyl and amide caps and the supplier (GenScript) are stated only for the ZipperDB-predicted hexapeptides; likely the same here; also called VQIVYK alanine mutant at position six; source: peptide

Target: the molecule itself
Assay: ThT fluorescence aggregation assay + TEM; peptide alone, 1 mM in 1X PBS, neutral pH, one week at 37 °C with 900 RPM orbital shaking; endpoint ThT (15 µM) and negative-stain TEM; self-assembly into fibrils

Binding result, binds:
B1
B2

Target: the molecule itself
Assay: ThT fluorescence aggregation assay + TEM; peptide alone, 200 µM in 1X PBS + 25 µM ThT, 37 °C, one week, endpoint ThT; fibrils checked by negative-stain TEM; self-assembly into fibrils

Binding result, binds:
B3
B4
B5
B6
